Experimental findings from patent US11360104, “Microbial-based biosensors” (TRUSTEES OF BOSTON UNIVERSITY) are described below.

In series [1] the target is T1, TetRc-tdTomato (UniProt P03039 P03039:1-219).
T1 chain: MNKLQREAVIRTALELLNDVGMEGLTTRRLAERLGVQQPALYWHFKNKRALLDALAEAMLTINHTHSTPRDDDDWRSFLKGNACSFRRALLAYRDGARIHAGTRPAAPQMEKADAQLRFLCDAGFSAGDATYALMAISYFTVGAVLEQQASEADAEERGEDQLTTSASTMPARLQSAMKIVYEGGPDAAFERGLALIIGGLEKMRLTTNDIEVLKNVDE
Description: FRET; aTc concentration for half-maximal DNA release; 5 mM MgCl2. Conditions: tags: tdTomato fusion, Strep-tag purified; chain copies: 2; label: Cy5 at 5' and 3' of reverse strand. As to the method:
(§1) At higher concentrations of aTc, binding of the TF and DNA is disrupted, reducing FRET, thereby increasing donor emission and reducing acceptor emission. Spectra are background subtracted to eliminate the effects of direct acceptor excitation. FIG. 3D-3F show the ratio of acceptor fluorescence intensity to donor fluorescence intensity as a function of aTc concentration. […] Sensor 1 was prepared with a 1:1:3 ratio of tdTomato:TF:DNA, while sensors 2 and 3 were prepared with a 1:4:18 ratio of QD:TF:DNA. tdTomato (200 nM) and QD (50 nM) concentrations were selected to keep TF concentration constant at 200 nM. Data are mean±standard deviation for n=3.
(§2) A TF to DNA ratio was chosen for each sensor (1:3 for Sensor 1, 1:4.5 for Sensors 2 and 3) and kept constant for subsequent experiments testing sensor sensitivity to aTc. Photoluminescence spectra were measured from sensors with increasing concentrations of aTc yielded changes in the ratio between the acceptor emission and donor emission (F_A/F_D). With increasing concentrations of aTc, F_A/F_D values decreased indicating unbinding of the DNA from the TF resulting in an increase in donor emission and decrease in acceptor emission (FIG. 3A-F). No changes were observed when aTc was titrated into a solution of non-binding donor-acceptor pairs (scrambled controls). […]

Series [2] has as its target T2, TetRc-6His (UniProt P03039 P03039:1-219).
T2 chain: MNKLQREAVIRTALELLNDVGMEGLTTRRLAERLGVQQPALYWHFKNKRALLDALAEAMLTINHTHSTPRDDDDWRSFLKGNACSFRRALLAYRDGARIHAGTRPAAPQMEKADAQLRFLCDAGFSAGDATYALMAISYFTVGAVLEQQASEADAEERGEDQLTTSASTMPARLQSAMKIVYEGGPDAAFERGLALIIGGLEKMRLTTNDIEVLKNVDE
The description is as above. The following applies: tags: His6, on quantum dot QD1; chain copies: 2; label: Cy5 at 5' and 3' of reverse strand. As to the method: as §1, §2

In series [3] the target is T3, TetRd-6His (UniProt P0ACT4 P0ACT4:2-218). Nature of the series: FRET; aTc for half-maximal DNA release; lower DNA affinity than TetRc; 5 mM MgCl2. Conditions: tags: His6, on quantum dot QD2; chain copies: 2; label: Cy5 at 5' and 3' of reverse strand.
Series [4] addresses T4, PinR (AIY20223.2, TetR family) (Pimelobacter simplex).
T4 chain: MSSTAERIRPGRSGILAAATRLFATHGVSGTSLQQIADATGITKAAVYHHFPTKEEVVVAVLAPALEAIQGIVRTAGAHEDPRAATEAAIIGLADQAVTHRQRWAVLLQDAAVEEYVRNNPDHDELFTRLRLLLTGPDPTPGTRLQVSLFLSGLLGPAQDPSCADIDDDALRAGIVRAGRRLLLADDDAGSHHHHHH
Nature of the series: FRET; progesterone for half-maximal DNA release; QD/TF/DNA 1/4/18. Conditions: tags: C-terminal His6, self-assembled on CdSe/CdS/ZnS quantum dot; label: Cy5 at 5' and 3'.

Series [5] has as its target T1, TetRc-tdTomato. Nature of the series: FRET; only collisional quenching. The following applies: tags: tdTomato fusion, Strep-tag purified; chain copies: 2; label: Cy5 at 5' and 3' of reverse strand. The protocol: (§3) For QD-based nanoconstructs, the his-tagged proteins self-assemble to the QD surface stoichiometrically according to the mixture ratio with a Poissonian distribution of proteins on the QD surface was used. […] Four his6-TetR monomers were used per QD for the titrations of Sensors 2 and 3 (FIG. 2A-C). […] Upon increasing DNA concentration, there is increased donor quenching in all three cases.
(§4) FRET assays. The FRET response of each sensor as a function of the donor-acceptor ratio was tested by titration of the acceptor while the concentration of the donor was kept constant. Briefly, the sensors were prepared in a solution of TBS+0.2% (w/v) BSA and 1× binding buffer (20 mM Tris-HCl, 5 mM MgCl_2, 5% glycerol, 50 ng/µl salmon sperm DNA). For Sensor 1, the final concentration of tetR-tdTomato was kept constant at 200 nM, while Cy5-modified DNA were titrated to yield donor-acceptor ratios ranging from 0-9. The sensor solution was pipetted into wells of a black, non-binding 384-well plate (Corning) with a final volume of 60 µl. For triplicate measurements, each of the above solutions were prepared with a final volume of 180 µl in microcentrifuge tubes and pipetted into 3 separate wells of 60 µl each.

The target in series [6] is T2, TetRc-6His. Description: FRET; only collisional quenching. The following applies: tags: His6, on quantum dot QD1; chain copies: 2; label: Cy5 at 5' and 3' of reverse strand. The protocol:
as §3, §4
(§5) For Sensors 2 and 3, QDs and tetR-6His were mixed at a 1:4 ratio with a final QD concentration of 50 nM for self-assembly of the tetR-6His to the surface of the QDs[21]. […]

The target of series [7] is T3, TetRd-6His. Description: FRET; only collisional quenching. The following applies: tags: His6, on quantum dot QD2; chain copies: 2; label: Cy5 at 5' and 3' of reverse strand. The protocol:
as §3, §4, §5

The target of series [8] is T4, PinR (AIY20223.2, TetR family). Description: FRET; progesterone concentration for half-maximal DNA release; QD/TF/DNA 1/4/18; described as strongest binding sequence. Conditions: tags: C-terminal His6, self-assembled on CdSe/CdS/ZnS quantum dot; label: Cy5 at 5' and 3'.

T3 sequence (P0ACT4 2-218, one chain of several): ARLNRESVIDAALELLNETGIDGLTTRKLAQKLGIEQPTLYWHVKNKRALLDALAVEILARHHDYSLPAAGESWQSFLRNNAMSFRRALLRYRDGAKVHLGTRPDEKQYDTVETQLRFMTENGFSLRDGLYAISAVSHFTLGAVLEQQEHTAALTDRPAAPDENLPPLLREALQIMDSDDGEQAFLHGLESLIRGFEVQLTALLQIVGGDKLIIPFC

B1: TetO 28 bp (dsDNA)
DNA 1: GTCATCCCTATCATTGATAGAGATACTG
DNA 2: CAGTATCTCTATCAATGATAGGGATGAC
On to B1, for which the figures for the EC50 with TetRc-tdTomato [1], with TetRc-6His [2] and with TetRd-6His [3] were 218 nM, 699 nM and 133 nM, respectively.

B2: DNA4 (13,15-T,T) (dsDNA)
DNA 1: CCTTAACTAGCCGTTCTGTTAGTTATTC
DNA 2: GAATAACTAACAGAACGGCTAGTTAAGG
As for B2, the IC50 (in general, the point on the concentration scale where inhibition reaches its midpoint) in series [4] came out at 150 nM. In other words, the sub-micromolar range.

B3: DNA2 (IG.AIY19519.15) (dsDNA)
DNA 1: GCCTAACTAGCCGATCGGCTAGTCATTC
DNA 2: GAATGACTAGCCGATCGGCTAGTTAGGC
B3 had a half-maximal inhibitory concentration (IC50) in series [4] of 370 nM.

B4: Scrambled TetO control (dsDNA)
DNA 1: TCGTGAAACCGAGCGAGGGACACGCACA
DNA 2: TGTGCGTGTCCCTCGCTCGGTTTCACGA
For the molecule B4, the binding result with TetRc-tdTomato [5], with TetRc-6His [6] and with TetRd-6His [7] was “no binding” in each case.

B5: DNA1 (AIY20223.2) (dsDNA)
DNA 1: GCCTAACTAGCCGTTCGGCTAGTTATTC
DNA 2: GAATAACTAGCCGAACGGCTAGTTAGGC
With B5, the IC50 in series [8] was determined as 460 nM.

B6: DNA3 (AIY20222.2) (dsDNA)
DNA 1: GCCTAACTAGCCGTTCGGCAAGTAATTC
DNA 2: GAATTACTTGCCGAACGGCTAGTTAGGC
As for B6, the IC50 in series [4] was found to be 290 nM. That is a sub-micromolar value.
